Measured values as given in article PMC5605233, “Crystal structure of the N-terminal domain of human Timeless and its interaction with Tipin” (Nucleic Acids Research, 2017).

Experiments:
[1] = target: human Tipin, N-terminal 10xHis tag, co-expressed with Timeless (human) (UniProt Q9BVW5); experiment: native MS + SEC-MALS; purified Timeless-Tipin complex; nanoESI-MS in 0.20 M ammonium acetate pH 7.0, 5-10 μM; SEC-MALLS
[2] = target: the molecule itself; experiment: SEC-MALS; Superdex 200 Increase 10/300, 25°C, 1-2 mg/ml (100 μl injection), 25 mM Hepes 7.2, 150 mM KCl, 50 mM Arginine, 50 mM Glutamate

human Timeless, full-length, N-terminal twin-strep tag, co-expressed with Tipin, sequence (Q9UNS1 whole entry): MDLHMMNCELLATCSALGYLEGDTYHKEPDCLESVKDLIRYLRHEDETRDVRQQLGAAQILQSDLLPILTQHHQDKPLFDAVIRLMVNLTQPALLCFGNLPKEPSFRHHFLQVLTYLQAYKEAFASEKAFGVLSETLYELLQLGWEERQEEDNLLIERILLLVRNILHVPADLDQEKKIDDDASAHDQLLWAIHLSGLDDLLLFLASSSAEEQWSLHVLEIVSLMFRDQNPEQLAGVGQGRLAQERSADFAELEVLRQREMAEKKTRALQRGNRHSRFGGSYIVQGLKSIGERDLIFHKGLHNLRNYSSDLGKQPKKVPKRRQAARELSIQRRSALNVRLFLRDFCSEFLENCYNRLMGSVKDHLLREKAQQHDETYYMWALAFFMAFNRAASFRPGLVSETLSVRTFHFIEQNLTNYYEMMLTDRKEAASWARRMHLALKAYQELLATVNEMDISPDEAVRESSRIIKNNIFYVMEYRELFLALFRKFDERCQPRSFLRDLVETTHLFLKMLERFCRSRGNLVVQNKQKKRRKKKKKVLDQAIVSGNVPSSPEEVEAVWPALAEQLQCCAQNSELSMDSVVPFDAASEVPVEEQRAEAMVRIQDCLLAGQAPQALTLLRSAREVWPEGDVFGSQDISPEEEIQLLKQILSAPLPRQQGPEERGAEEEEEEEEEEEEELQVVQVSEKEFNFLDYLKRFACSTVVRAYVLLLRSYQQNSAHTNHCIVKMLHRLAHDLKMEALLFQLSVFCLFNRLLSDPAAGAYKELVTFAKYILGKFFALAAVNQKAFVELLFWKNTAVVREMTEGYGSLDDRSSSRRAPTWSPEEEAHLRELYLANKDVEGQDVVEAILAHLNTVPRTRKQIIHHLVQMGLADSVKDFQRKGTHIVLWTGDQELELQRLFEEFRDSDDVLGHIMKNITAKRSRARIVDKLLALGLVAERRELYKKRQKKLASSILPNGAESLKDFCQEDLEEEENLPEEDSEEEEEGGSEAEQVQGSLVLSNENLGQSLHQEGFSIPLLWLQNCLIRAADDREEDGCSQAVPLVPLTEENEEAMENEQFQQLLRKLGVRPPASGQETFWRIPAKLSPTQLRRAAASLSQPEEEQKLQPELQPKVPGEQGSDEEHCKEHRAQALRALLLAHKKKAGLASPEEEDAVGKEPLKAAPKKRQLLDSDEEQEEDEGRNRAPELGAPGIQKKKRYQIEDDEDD
human Tipin, N-terminal 10xHis tag, co-expressed with Timeless (human), sequence (Q9BVW5 whole entry): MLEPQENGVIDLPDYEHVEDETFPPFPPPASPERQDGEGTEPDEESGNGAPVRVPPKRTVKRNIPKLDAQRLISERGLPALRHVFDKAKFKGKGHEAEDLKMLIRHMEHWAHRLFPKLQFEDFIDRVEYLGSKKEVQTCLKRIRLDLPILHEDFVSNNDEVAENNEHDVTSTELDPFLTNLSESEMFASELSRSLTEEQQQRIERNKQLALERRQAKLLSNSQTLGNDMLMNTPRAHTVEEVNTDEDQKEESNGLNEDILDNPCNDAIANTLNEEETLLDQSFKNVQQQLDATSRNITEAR

stoichiometry N (Timeless:Tipin) [1] | Molecule | stoichiometry N [2]
1 | human Timeless, full-length, N-terminal twin-strep tag, co-expressed with Tipin (from UniProt Q9UNS1 1-1208) (natural protein) | –
– | TimN(Δ239-330): Timeless 1-463 with residues 239-330 replaced by the linker GSTGST (domain or fragment, human, human Timeless, residues 1-238; 6-residue linker in place of residues 239-330; human Timeless, residues 331-463; Dimer in solution and in the crystal; the authors think the dimer is likely an artifact of construct design; also called Timeless(1-463_(Δ239-330)); source: E. coli Rosetta2(DE3), purified (Ni-NTA, HiTrap Q, SEC)) MDLHMMNCELLATCSALGYLEGDTYHKEPDCLESVKDLIRYLRHEDETRDVRQQLGAAQILQSDLLPILTQHHQDKPLFDAVIRLMVNLTQPALLCFGNLPKEPSFRHHFLQVLTYLQAYKEAFASEKAFGVLSETLYELLQLGWEERQEEDNLLIERILLLVRNILHVPADLDQEKKIDDDASAHDQLLWAIHLSGLDDLLLFLASSSAEEQWSLHVLEIVSLMFRDQNPEQLAGVGGSTGSTQRRSALNVRLFLRDFCSEFLENCYNRLMGSVKDHLLREKAQQHDETYYMWALAFFMAFNRAASFRPGLVSETLSVRTFHFIEQNLTNYYEMMLTDRKEAASWARRMHLALKAYQELLATVNEMDISPDEAVRE | 2
